Assay results as given in paper PMC5947572, “The C‐terminal cytosolic domain of the human zinc transporter ZnT8 and its diabetes risk variant” (The Febs Journal, 2018).
Changes are numbered by the printed parent chain.

B1: R325 variant of ZnT8 CTD (aa267-369) (domain or fragment, human, UniProt Q8IWU4 267-369, looked up)
chain: LKDFSILLMEGVPKSLNYSGVKELILAVDGVLSVHSLHIWSLTMNQVILSAHVATAASRDSQVVRREIAKALSKSFTMHSLTIQMESPVDQDPDCLFCEDPCD
modifications: amine-reactive Red-NHS dye (Monolith NT.115 labelling kit) on the labelled copy in MST; the titrated copy unlabelled
notes: human zinc transporter ZnT8 (SLC30A8), C-terminal cytosolic domain, residues 267-369, Arg at position 325; numbers count on the full-length human ZnT8 long isoform (Ensembl transcript SLC30A8-002); A TEV protease cleavage site stands between the N-terminal hexahistidine tag and the domain (vector pET6H); Calculated monomer mass with tag and TEV site 13.3 kDa; also called ZnT8cR; apo-ZnT8cR; …
B2: W325 variant of ZnT8 CTD (aa267-369) (domain or fragment, human, UniProt Q8IWU4 267-369, looked up)
chain: B1 chain with R59W
modifications: amine-reactive Red-NHS dye (Monolith NT.115 labelling kit) on the labelled copy in MST; the titrated copy unlabelled
notes: numbers count on the full-length human ZnT8 long isoform (Ensembl transcript SLC30A8-002); A TEV protease cleavage site stands between the N-terminal hexahistidine tag and the domain (vector pET6H); also called ZnT8cW; apo-ZnT8cW; source: apo form made with TCEP and EDTA; not shown: His6, N-terminal, kept

Key:
[1] = target: the molecule itself; experiment: native gel or EMSA; native PAGE of the purified proteins; conditions not given
[2] = target: the molecule itself; experiment: MST; homodimerisation (dimer to monomers); 100 nM Red-NHS-labelled apo-protein titrated with unlabelled apo-protein of the same variant (180 uM-5.5 nM ZnT8cR or 124 uM-3.8 nM ZnT8cW); 10 mM potassium phosphate pH 8, 60 mM NaCl, 20 mM sucrose, 100 uM TCEP, 1 mM EDTA, 0.05% Tween-20; 25 °C; Monolith NT.115

| Protein | stoichiometry N [1] | Kd [2] [µM] |
| --- | --- | --- |
| B1 | 2 | 4.3 |
| B2 | 2 | 1.8 |
